Measurements reported in paper PMC6638009 (Molecular Plant Pathology, 2018).

Legend:
[1] = target: His-tagged AvrXa27 (Xanthomonas oryzae pv. oryzae, UniProt A0A0K0GNW2 1-1136); assay: MST; […]; 50 mM Tris-HCl pH 7.8, 150 mM NaCl, 10 mM MgCl2, 0.05% Tween-20; 25°C; […]; details: both partners purified
[2] = target: His-tagged PthXo1 (Xanthomonas oryzae pv. oryzae, UniProt B2SU53 1-1373); assay: as above; details: both partners purified

B1: His-tagged Xa5 (OsTFIIAγ5), labelled with NT-647 (natural protein, rice (Oryza sativa), UniProt A2XZI2 1-106, looked up)
chain: MATFELYRRSTIGMCLTETLDEMVSSGTLSPELAIQVLVQFDKSMTEALENQVKSKVSIKGHLHTYRFCDNVWTFILTEASFKNEETTEQVGKVKIVACDSKLLSQ
modifications: amine-reactive red fluorescent dye NT-647
- Kd [1]: < 1000 nM
- Kd [2]: < 1000 nM
